Our source for the GLP-1 Receptor Activation (fold of GLP-1(7-37)OH) and In Vitro Activity (% of Val^8-GLP-1) (% of Val^8-GLP-1) values is patent US20040053370A1.

The target of the test is GLP-1 receptor. Briefly: cell-based or functional assay.

Values joined by “and” are separate entries in the source; they are usually repeats but may differ in a detail not shown here. Equal entries are not always repeated.

For “Val^8-Trp^16-Glu^22-Val^25-GLP-1(7-37)OH (peptide)”, the GLP-1 Receptor Activation (fold of GLP-1(7-37)OH) turned out to be 2.07.
Still for that read-out and setting: for “Val^8-Lys^33-Asn^34-GLP-1(7-37)OH (peptide)” the value was 0.09; for “Val^8-Trp^16-Glu^22-Ile^33-GLP-1(7-37)OH (peptide)”, 1.93.
Consider “Gly^8-GLP-1-IgG1 (from UniProt P01857 99-330) (Fc fusion)”, for which the In Vitro Activity (% of Val^8-GLP-1) (% of Val^8-GLP-1) is 3.3.
Consider “Val^8-Glu^22-Val^25-Ile^33-GLP-1(7-37)OH (peptide)”, for which the GLP-1 Receptor Activation (fold of GLP-1(7-37)OH) was 2.3 and 2.73 and 3.15.
